Experimental data taken from patent US20230165967A1 (TAE LIFE SCIENCES, published 2023).

How the values were obtained:
[1] = molecular target: T1, recombinant human soluble ECD of CD64/FCGRIA (human, UniProt P12314 16-292); assay: ELISA: plate coated with recombinant human CD64/FCGRIA ECD, antibody titrated, HRP goat anti-human Fc, OD650
T1 construct: extracellular domain; also called FcγRI
Procedure: FcγRI binding was evaluated using an enzyme linked immunoassay (ELISA). Briefly, 96-well ELISA plates were coated with recombinant human soluble ECD of CD64/FCGRIA (Sino Biological, Inc. Beijing, China) in 1×PBS (pH7.4) coating buffer. Subsequently the plates were washed and blocked with ELISA blocking buffer. […] After washing to remove unbound antibodies, the bound antibodies were detected with horseradish peroxidase (HRP) conjugated goat anti-human Fc-specific polyclonal antibody (Jackson ImmunoResearch, West Grove, Pa.). After washing to remove the unbound detection antibody, a slow kinetic substrate solution of tetramethylbenzidine (TMB) was added to the wells where color develops in proportion to the amount of testing samples. The optical density (OD) of the color was measured at 650 nm and was used for determination of the amount of testing samples bound to FcγRI. Detectable binding of antibodies over the range of test concentrations was analyzed using the one-site binding, nonlinear regression analysis with GraphPad Prism.

[2] = molecular target: recombinant human FcRn (Sino Biological) (human, UniProt P55899 24-297; P61769 21-119); assay: ELISA at pH 6.0: plate coated with recombinant human FcRn, antibody titrated, HRP goat anti-human Fc, OD650
Procedure: FcRn binding was evaluated using an enzyme linked immunoassay (ELISA). Briefly, 96-well ELISA plates were coated with of recombinant human FcRn (Sino Biological, Inc, Beijing, China) in 1×PBS (pH 6.0) coating buffer. Subsequently, the plates were washed and blocked with ELISA blocking buffer. […] After washing to remove unbound antibodies, the bound antibodies were detected with horseradish peroxidase (HRP) conjugated goat anti-human Fc-specific polyclonal antibody (Jackson ImmunoResearch, West Grove, Pa.). After washing to remove unbound detection antibody, a slow kinetic substrate solution of tetramethylbenzidine (TMB) was added to the wells where color develops in proportion to the amount of testing samples. The optical density (OD) of the color was measured at 650 nm and was used for determination of the amount of testing samples bound to FcRn. Detectable binding of antibodies over the range of test concentrations was analyzed using the one-site binding, nonlinear regression analysis with GraphPad Prism.

[3] = molecular target: T2, recombinant human soluble ECD of hCD16a/FCGRIIIA (human, UniProt P08637 17-208); assay: ELISA: plate coated with recombinant human CD16a/FCGRIIIA ECD, antibody titrated 0.005-80 ug/ml, HRP goat anti-human Fc, OD650
T2 construct: extracellular domain; also called FcγRIIIa
T2 sequence (P08637 17-208): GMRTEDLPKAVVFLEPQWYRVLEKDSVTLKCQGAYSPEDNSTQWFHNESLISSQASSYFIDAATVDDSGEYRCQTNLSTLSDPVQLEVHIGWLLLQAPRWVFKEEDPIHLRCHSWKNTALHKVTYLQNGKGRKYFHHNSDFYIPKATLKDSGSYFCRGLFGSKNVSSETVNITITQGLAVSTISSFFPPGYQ
Procedure: FcγRIIIa binding was evaluated using an enzyme linked immunoassay (ELISA). Briefly, 96-well ELISA plates were coated with of recombinant human soluble ECD of hCD16a/[sequence] (Sino Biological, Inc, Beijing, China) in 1×PBS (pH7.4) coating buffer. Subsequently the plates were washed and blocked with ELISA blocking buffer. […] After washing to remove unbound antibodies, the bound antibodies were detected with horseradish peroxidase (HRP) conjugated goat anti-human Fc-specific polyclonal antibody (Jackson ImmunoResearch, West Grove, Pa.). After washing to remove unbound detection antibody, a slow kinetic substrate solution of tetramethylbenzidine (TMB) was added to the wells where color develops in proportion to the amount of testing samples. The optical density (OD) of the color was measured at 650 nm and was used for determination of the amount of testing samples bound to FcγRIIa. Detectable binding of antibodies over the range of test concentrations was analyzed using the one-site binding, nonlinear regression analysis with GraphPad Prism.

[4] = molecular target: human C1q (sigma Cat #C1740) (human, UniProt P02745 23-245; P02746 28-253; P02747 29-245); assay: ELISA: plate coated with antibody at 1 ug/ml, human C1q titrated 0.625-40 ug/ml, rabbit anti-human C1q then HRP goat anti-rabbit, OD650
Chain of human C1q (sigma Cat #C1740) (P02745 23-245 limits assumed, chain 1 of 3): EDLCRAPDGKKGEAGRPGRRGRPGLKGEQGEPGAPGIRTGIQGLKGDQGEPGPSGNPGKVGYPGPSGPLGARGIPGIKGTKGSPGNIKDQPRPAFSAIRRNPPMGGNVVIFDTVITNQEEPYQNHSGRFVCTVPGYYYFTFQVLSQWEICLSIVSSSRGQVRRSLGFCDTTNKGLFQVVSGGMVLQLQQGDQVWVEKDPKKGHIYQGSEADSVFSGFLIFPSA
Chain of human C1q (sigma Cat #C1740) (P02746 28-253 limits assumed, chain 2 of 3): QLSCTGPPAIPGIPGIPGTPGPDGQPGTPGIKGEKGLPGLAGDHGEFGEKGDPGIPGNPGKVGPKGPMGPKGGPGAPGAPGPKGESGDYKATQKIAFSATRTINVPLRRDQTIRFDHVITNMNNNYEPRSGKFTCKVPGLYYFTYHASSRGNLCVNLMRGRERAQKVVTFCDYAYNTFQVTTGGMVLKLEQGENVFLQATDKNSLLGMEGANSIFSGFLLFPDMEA
Chain of human C1q (sigma Cat #C1740) (P02747 29-245 limits assumed, chain 3 of 3): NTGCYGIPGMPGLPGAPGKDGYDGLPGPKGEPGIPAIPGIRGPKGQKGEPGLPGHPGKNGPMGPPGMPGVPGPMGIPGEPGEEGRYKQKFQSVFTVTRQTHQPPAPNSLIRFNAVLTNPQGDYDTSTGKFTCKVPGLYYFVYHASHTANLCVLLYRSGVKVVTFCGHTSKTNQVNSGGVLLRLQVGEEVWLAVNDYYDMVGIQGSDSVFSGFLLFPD
Procedure: Subsequently the plates were washed and blocked with ELISA blocking buffer (PBS containing 1% BSA). […] A slow kinetic substrate solution of tetramethylbenzidine (TMB) was added and the optical density (OD) of the color was measured at 650 nm. The data representing detectable binding of antibodies over the range of test concentrations was analyzed by one-site binding nonlinear regression analysis using GraphPad Prism software.

T1 sequence (P12314 16-292): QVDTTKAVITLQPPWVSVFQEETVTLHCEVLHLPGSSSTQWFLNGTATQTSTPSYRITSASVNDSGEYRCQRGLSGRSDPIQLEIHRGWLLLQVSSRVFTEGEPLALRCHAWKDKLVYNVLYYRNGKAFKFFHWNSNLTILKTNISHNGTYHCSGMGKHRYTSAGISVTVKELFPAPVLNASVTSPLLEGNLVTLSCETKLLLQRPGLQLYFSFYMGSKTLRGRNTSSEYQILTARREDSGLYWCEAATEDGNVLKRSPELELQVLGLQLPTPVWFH

- binding result [1]: no binding (tested: 30 ug/ml)
- binding result [2]: binds
- binding result [3]: no binding (tested: 80 ug/ml)
- binding result [4]: binds
B1: Anti-EGFR Ab No. 1 L234A, L235A, L328C (antibody, human IgG1, kappa, L234A L235A)
heavy: QVQLQESGPGLVKPSETLSLTCTVSGGSVSSGDYYWTWIRQSPGKGLEWIGHIYYSGNTNYNPSLKSRLTISIDTSKTQFSLKLSSVTAADTAIYYCVRDRVTGAFDIWGQGTMVTVSSASTKGPSVFPLAPSSKSTSGGTAALGCLVKDYFPEPVTVSWNSGALTSGVHTFPAVLQSSGLYSLSSVVTVPSSSLGTQTYICNVNHKPSNTKVDKKVEPKSCDKTHTCPPCPAPEAAGGPSVFLFPPKPKDTLMISRTPEVTCVVVDVSHEDPEVKFNWYVDGVEVHNAKTKPREEQYNSTYRVVSVLTVLHQDWLNGKEYKCKVSNKACPAPIEKTISKAKGQPREPQVYTLPPSREEMTKNQVSLTCLVKGFYPSDIAVEWESNGQPENNYKTTPPVLDSDGSFFLYSKLTVDKSRWQQGNVFSCSVMHEALHNHYTQKSLSLSPGK
light: not shown
notes: Fc variant; wild-type light chain; also called Anti-EGFR Mab No. 1 triple mutant; triple mutation L234A, L235A, and L328C
